What all share (conditions): 20 nM; 72 h
Series [1] concerns MCF10A. Description: 5+ nucleoli phenotype percent effect (relative to siNT 0% and siKIF11 100%); higher = more cells with five or more nucleoli. On the procedure:
(§1)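 After 72 h, cells were fixed and stained with Hoechst and anti-fibrillarin, and nucleoli per nucleus were counted with CellProfiler. Values are plate-adjusted percent effect for the one-nucleolus and 5+ nucleoli phenotypes, normalised to siNT (0%) and to the positive controls siNOL11 or siKIF11 (100%), as the mean of biological triplicates. Percent viability is the nuclei count relative to siNT.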

Series [2] deals with MCF10A. Description: percent viability (nuclei count relative to siNT); higher = more viable cells. How it is done:
as §1

The test system of series [3] is MCF10A. Nature of the series: one-nucleolus phenotype percent effect (relative to siNT 0% and siNOL11 100%); higher = more cells with one nucleolus (ribosome biogenesis inhibition). On the procedure: as §1

In the case of UAAAGAGCCCUGUGGAGACA [hsa-miR-1276], the “5+ nucleoli phenotype percent effect” value in the series with MCF10A [1] is -20.8%. For the same sequence, the percent viability in the series on MCF10A [2] came to 41.4%. Also, the “one-nucleolus phenotype percent effect” value with MCF10A [3] worked out at 24.1%.
With UUCACAGUGGCUAAGUUCUGC [hsa-miR-27b-3p], the “5+ nucleoli phenotype percent effect” value with MCF10A [1] is -0.0856%. Besides, the percent viability in the series on MCF10A [2] is 128%. In the series with MCF10A [3], the “one-nucleolus phenotype percent effect” value is -13.3%.
In the case of AUCUGCCAGCUUCCACAGUGG [hsa-miR-4727-5p], the “5+ nucleoli phenotype percent effect” value in the series with MCF10A [1] is -25.7%. In addition, the percent viability with MCF10A [2] stood at 42.4%. Moreover, in the series with MCF10A [3], the “one-nucleolus phenotype percent effect” value came out at 17.9%.
Regarding AAGACGGGAGGAAAGAAGGGAG [hsa-miR-483-5p], the “5+ nucleoli phenotype percent effect” value with MCF10A [1] is -31.8%. Further, the percent viability in the series on MCF10A [2] was 51.5%. In the series with MCF10A [3], the “one-nucleolus phenotype percent effect” value amounted to 19.1%.
As for AGUAUUCUGUACCAGGGAAGGU [hsa-miR-630], in the series with MCF10A [1], the “5+ nucleoli phenotype percent effect” value came to 49.7%. Also, the percent viability in the series with MCF10A [2] stood at 68.7%. Besides, the “one-nucleolus phenotype percent effect” value in the series on MCF10A [3] was -15.1%.
As for “UGAGUGGGGCUCCCGGGACGGCG [hsa-miR-4745-5p]”, the “5+ nucleoli phenotype percent effect” value with MCF10A [1] is 25%. Moreover, in the series with MCF10A [2], the percent viability came to 57.7%. Also, in the series on MCF10A [3], the “one-nucleolus phenotype percent effect” value is -8.18%.
Turning to GGUGGAUAUUCCUUCUAUGUU [hsa-miR-376c-5p], the “5+ nucleoli phenotype percent effect” value with MCF10A [1] is -0.73%. The percent viability in the series on MCF10A [2] turned out to be 20.7%. For the same sequence, the “one-nucleolus phenotype percent effect” value in the series with MCF10A [3] was 21.9%.
For the sequence CCGGGGCAGAUUGGUGUAGGGUG [hsa-miR-5090], the “5+ nucleoli phenotype percent effect” value with MCF10A [1] stood at 24.7%. Further, the percent viability in the series on MCF10A [2] came to 82%. For the same sequence, the “one-nucleolus phenotype percent effect” value with MCF10A [3] was -10.2%.
For the sequence “UGAGACCAGGACUGGAUGCACC [hsa-miR-4786-5p]”, the “5+ nucleoli phenotype percent effect” value in the series with MCF10A [1] is -0.448%. The percent viability in the series with MCF10A [2] was 42.2%. Besides, in the series with MCF10A [3], the “one-nucleolus phenotype percent effect” value was -5.75%.
With “ACAGGCACGACUGGUUUGGCA [hsa-miR-6715b-5p]”, the “5+ nucleoli phenotype percent effect” value in the series with MCF10A [1] was -27.8%. The percent viability in the series on MCF10A [2] is 14.8%. The “one-nucleolus phenotype percent effect” value with MCF10A [3] turned out to be 54.7%.
In the case of UCUGCAAGUGUCAGAGGCGAGG [hsa-miR-2276], the “5+ nucleoli phenotype percent effect” value with MCF10A [1] came to 38.4%. In the series with MCF10A [2], the percent viability amounted to 160%. The “one-nucleolus phenotype percent effect” value with MCF10A [3] was -15.8%.
Consider AUCCCACCACUGCCACCAU [hsa-miR-1260b], for which the “5+ nucleoli phenotype percent effect” value with MCF10A [1] is 18.9%. Besides, in the series on MCF10A [2], the percent viability came out at 30.7%. Further, the “one-nucleolus phenotype percent effect” value with MCF10A [3] was -10.3%.
As to CCUGCGUGUUUUCUGUCCAA [hsa-miR-4520a-5p], the “5+ nucleoli phenotype percent effect” value in the series on MCF10A [1] is -4.05%. The percent viability in the series on MCF10A [2] stood at 52.7%. The “one-nucleolus phenotype percent effect” value in the series with MCF10A [3] was 3.67%.
For the sequence “UGGUCAGAGGCAGCAGGAAAUGA [hsa-miR-6801-5p]”, the “5+ nucleoli phenotype percent effect” value in the series with MCF10A [1] was determined as 27.3%. Also, the percent viability with MCF10A [2] was 54.5%. In addition, the “one-nucleolus phenotype percent effect” value with MCF10A [3] was -5.6%.
On to “UUCAUUUGCCUCCCAGCCUACA [hsa-miR-664b-3p]”, for which the “5+ nucleoli phenotype percent effect” value in the series on MCF10A [1] was -29.2%. Moreover, the percent viability in the series with MCF10A [2] came to 28.7%. Moreover, the “one-nucleolus phenotype percent effect” value in the series with MCF10A [3] worked out at 39.1%.
For “UGUGUACACACGUGCCAGGCGCU [hsa-miR-3177-5p]”, in that order: 61.9%, 131% and -22.2%.
For UCUAGUAAGAGUGGCAGUCGA [hsa-miR-628-3p], in the series on MCF10A [1], the “5+ nucleoli phenotype percent effect” value turned out to be 31.5%. Besides, in the series on MCF10A [2], the percent viability came out at 55.8%. The “one-nucleolus phenotype percent effect” value with MCF10A [3] is -7.59%.
With CACACAUAGCAGGUGUAUAUA [hsa-miR-4789-3p], the “5+ nucleoli phenotype percent effect” value in the series on MCF10A [1] was found to be 39.4%. For the same sequence, the percent viability with MCF10A [2] is 67.3%. In addition, in the series on MCF10A [3], the “one-nucleolus phenotype percent effect” value is -24.6%.
With “UGUGACUUCUCCCCUGCCACAG [hsa-miR-6820-3p]”, in the series on MCF10A [1], the “5+ nucleoli phenotype percent effect” value is -7.76%. For the same sequence, the percent viability with MCF10A [2] is 32.3%. Besides, the “one-nucleolus phenotype percent effect” value with MCF10A [3] stood at 22.3%.
As to “CAGGAGGCAGUGGGCGAGCAGG [hsa-miR-4695-5p]”, the “5+ nucleoli phenotype percent effect” value with MCF10A [1] was found to be 14.2%. Also, the percent viability with MCF10A [2] came out at 54.7%. The “one-nucleolus phenotype percent effect” value in the series on MCF10A [3] is -5.49%.
